Results taken from patent US12194057B2, “NXTAR-derived oligonucleotides and uses thereof” (Washington University, priority 2020, dated 2025).

What was measured:
AR-V7 = experiment: qRT-PCR of AR-V7 expression in prostate cancer cells; type: cell-based, human; settings: 22Rv1 cells, reintroduction of NXTAR
Protocol: (§1) NXTAR-N5 oligonucleotide was synthesized by IDT, and the oligonucleotide sequence is provided in TABLE 1 and FIG. 7C (* represents phosphorothioate bond modifications to avoid degradation by exonucleases). Equal numbers of VCaP and 22Rv1 cells were transfected with NXTAR-N5 or globin-derived oligonucleotide using X-tremeGENE360 (Sigma-Aldrich, Cat #08724121001), and the number of live cells was counted 96 h post-transfection using trypan blue exclusion method (Sigma, Cat #T8154). RNA was prepared from these cells, and qRT-PCR [SYBR PremixEx Taq II (Tli RNase H Plus)ROX, Clontech Takara, Cat #RR82LR] for AR and AR-V7 was performed as described earlier (see e.g., Mahajan et al. (2017) Cancer Cell).
Cells were transfected, infected or treated [(R)-9b; EPZ6438, TargetMol, Cat #T1788] accordingly. RNA was used for cDNA preparation using High-Capacity cDNA Reverse Transcription Kit (Thermo Scientific Cat #4368814). Resulting cDNA was then analyzed by qPCR using an Applied Biosystems 7900 Real-Time PCR System (Thermo Scientific) and SYBR Green PCR Master Mix [SYBR PremixEx Taq II (Tli RNase H Plus) ROX, Clontech Takara, Cat #RR82LR] according to the manufacturers' instructions. Dissociation curves were generated for each plate to verify the integrity of the primers. The relative expression of RNAs was calculated using the comparative Ct or standard curve method. […]

purified EZH2 = biological target: T1, purified EZH2 (Homo sapiens, UniProt Q15910); experiment: EZH2 pull-down assay with purified 6xHis-tagged EZH2; type: binding; settings: immobilized on streptavidin beads
T1 construct: made in house
Protocol: 1 mg of lysate prepared from HEK293 cells transfected with 6λHis-tagged-EZH2 plasmid was incubated with Ni-NTA agarose beads (Qiagene) overnight at 4° C. Beads were washed three times using wash buffer (20 mM Tris/HCl, 200 mM NaCl, 5 mM imidazole; pH 7.5) and purified EZH2 was eluted using elution buffer (20 mM Tris/HCl, 200 mM NaCl, 200 mM imidazole; pH 7.5).
LncRNA-Protein binding study was performed as described earlier (see e.g., Zhao, Wang, and Hu (2021) Methods Mol Bio). Briefly, 10 pmol Biotinylated NXTAR-N5 oligo or Biotinylated Globin oligos were diluted in 40 ul RNA structure buffer, heated at 90° C. for 2 min, immediately transferred onto ice for 2 min and then kept at RT for further 20 mins. 10 uM of purified EZH2 protein was added to these biotinylated oligos with 500 ul of NETN buffer and the tubes were placed at 4° C. for 2 hrs. Post washing with cold NETN buffer, streptavidin magnetic beads (60 ul) were added into prepared oligo-protein mix and incubated at 4° C. overnight. Beads were washed 3 times with NETN buffer, followed by western blot analysis. […]

AR promoter = experiment: ChIP-qPCR (EZH2, H3K27me3) at AR promoter; type: cell-based, human
Protocol: Chromatin immunoprecipitation (ChIP), quantitative RT-PCR, and ChIP-qPCR were performed as described earlier (see e.g., Mahajan et al. (2017) Cancer Cell; Mahajan et al. (2012) J Biol Chem; and Mahajan et al. (2012) Nat Struct Mol Bio). Briefly, cells were either transfected, infected or treated with various inhibitors (R)-9b; CPTH2 (Sigma, Cat #C9873)], fixed in formaldehyde, lysed and ChIP was performed with antibodies recognizing AR (SCBT, sc-7305; RRID:AB_626671), GCN5 (SCBT, SC-365321; RRID:AB_10846182), H3K14ac (CST, 7627S; RRID:AB_10839410), H3K27me3 (CST, 9733S; RRID:AB 2616029), NCOR1 (Bethyl Laboratories, Cat #A301-145A; RRID:AB_873085), EZH2 (CST, 5246S; RRID:AB_10694683), or IgG (Abcam, ab2410; RRID:AB_303052), immobilized on Protein A magnetic beads (Biorad, Cat #161-4013). The complexes were washed with ChIP buffers, eluted with elution buffer (Active Motif, Cat #53008), and subjected to reverse crosslinking, followed by RNase and proteinase K treatments. A part of soluble chromatin was processed separately at the same time and designated as input DNA. Treated ChIP DNA and input DNAs were purified using PCR-DNA purification columns (Qiagen, Cat #28106). The amount of immunoprecipitated DNA was determined by real-time PCR.

VCaP cells = experiment: Xenograft of VCaP cells infected with pBABE vector or NXTAR in SCID mice; type: in vivo
Protocol: All animal experiments were performed using the standards for humane care in accordance with the National Institutes of Health Guide for the Care and Use of Laboratory Animals. Mice breeding and colony maintenance were performed according to IACUC protocols approved by Washington University in St. Louis. 1.5×10^6 VCaP cells were suspended in 200 μL of PBS with 50% Matrigel (Corning, Cat #354428) and implanted subcutaneously into the dorsal flank of castrated 6-week-old male SCID mice (Charles River, Strain code: 236). Once the tumors reached approximately 100 mm^3, mice were randomized and injected subcutaneously with (R)-9b mesylate salt suspended in 6% Captisol (Cydex Pharmaceuticals). Tumor volumes were measured twice weekly using calipers. At the end of the study, all mice were humanely euthanized and tumors were extracted and weighed. To assess the role of NXTAR in tumor growth, 1.5×10^6 VCaP cells that were either infected with pBABE vector or NXTAR and selected with puromycin (Gibco, Cat #A1113803), implanted and growth of tumors was recorded. The personnel taking tumor volume measurement were blinded for the treatment groups.
To examine the direct effect of NXTAR restoration on prostate tumor growth, equal numbers of VCaP infected with either pBABE vector or NXTAR constructs were injected in the SCID mice. Palpable tumors were formed around week 5 that were measured twice a week thereafter.

AR = experiment: qRT-PCR of AR and AR target gene expression in prostate cancer cells; type: cell-based, human
Protocol: as §1
Cells were transfected, infected or treated [(R)-9b; EPZ6438, TargetMol, Cat #T1788] accordingly. RNA was used for cDNA preparation using High-Capacity cDNA Reverse Transcription Kit (Thermo Scientific Cat #4368814). Resulting cDNA was then analyzed by qPCR using an Applied Biosystems 7900 Real-Time PCR System (Thermo Scientific) and SYBR Green PCR Master Mix [SYBR PremixEx Taq II (Tli RNase H Plus) ROX, Clontech Takara, Cat #RR82LR] according to the manufacturers' instructions. Dissociation curves were generated for each plate to verify the integrity of the primers. The relative expression of RNAs was calculated using the comparative Ct or standard curve method. 18S rRNA or actin were used as internal controls.

[1] = 22Rv1 and VCaP cells infected with retroviral NXTAR construct

T1 sequence (Q15910 whole entry): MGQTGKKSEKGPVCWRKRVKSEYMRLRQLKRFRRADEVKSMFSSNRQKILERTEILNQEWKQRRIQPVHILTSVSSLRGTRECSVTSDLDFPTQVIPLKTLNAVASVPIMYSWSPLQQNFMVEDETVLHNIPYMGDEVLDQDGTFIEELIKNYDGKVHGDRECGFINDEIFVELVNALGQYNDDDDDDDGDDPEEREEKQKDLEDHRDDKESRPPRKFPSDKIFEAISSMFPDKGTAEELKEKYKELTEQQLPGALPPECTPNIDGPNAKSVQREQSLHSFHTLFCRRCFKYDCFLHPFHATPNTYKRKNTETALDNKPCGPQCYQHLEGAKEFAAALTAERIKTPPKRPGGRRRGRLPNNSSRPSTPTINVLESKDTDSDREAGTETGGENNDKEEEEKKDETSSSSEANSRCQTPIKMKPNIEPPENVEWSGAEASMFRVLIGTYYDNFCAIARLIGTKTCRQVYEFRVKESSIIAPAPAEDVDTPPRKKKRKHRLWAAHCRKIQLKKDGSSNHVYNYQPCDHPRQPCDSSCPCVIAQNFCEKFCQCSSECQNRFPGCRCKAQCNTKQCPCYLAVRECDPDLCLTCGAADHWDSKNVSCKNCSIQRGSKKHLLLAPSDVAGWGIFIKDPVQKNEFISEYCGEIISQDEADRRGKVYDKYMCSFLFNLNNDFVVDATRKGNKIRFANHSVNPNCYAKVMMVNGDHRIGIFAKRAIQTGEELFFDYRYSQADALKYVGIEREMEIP

B1: NXTAR: long non-coding RNA, 1476-nt transcript (SEQ ID NO: 58), expressed from retroviral or plasmid constructs (nucleic acid, listed as Homo sapiens)
chain: GGAAAAGGAAGGCTGCACAGAAGAACTGGCATTTGTGTTCTGCCTACAAAGCTGAAAAGGATTTCACCCAAATCAGGGAAGATCAGCCTTATGAGGTGGATATTATTGCCACAATAATTTTCCAGATGAAAAATGGAGGCCCAGAGATGTTAAGGAATTTGCCCAAGATCATGAAAAGACACTCTCCCCTATTGAGATGTCATGCAAGGATCAGTGCTGTGTGAAAATCCACATGAAGCAGGAAATGCAGGTGGTGGTGTCCAATCTGATTTCAAGATCTGAGAAGCTGTGCACTGCCTGAAAGGTATCTATTTAAGGTGTCACCAGACTCCTGCTCCACTCCTGCCCAAGGCCCAGCCCATCCAAGAGCAAAAGGCAAGTGGTGTTACAACCTTGGGATTTCCTGTATCTGCCCTCTTGCGGATAGCAGGACAGAGTCACAGCTGCATTAAATTCGCTTAAGACTTATTGAGACACTTCAACACTTCAACAACGACCTGTGAGATTAAGATTATTATTTTAAATTTACAGAAGGGGAAACTAAGAATTATAGACATGAAGTGACTCACCTATGACCACCTGGTGATAGAACCAGGACTAGAGCTCAGGTATGAAGATTTCTGGGGGAGTCCCTGAAAAAAAGGCTCCATATGGAATTACAATGTGGAAAAGGCCAAGGCCTCACCAACCCTTTTCTCTTCAACACCTGGATCCCTAAGTCCTTATTCGTAACCTCCTCTTTGGACAAGGTTTTGGTAGACAAAGCCAGAGCCTCTTGCACTGAGAAAGACAAATTCTCCTCTTGCAGTGAACCACAGGTAAATGCTCCAATAGAGAGTCCAAGCCAAACCTCCGGGTGTTATTCATGACCCAGGCAAGTCTGCTTTCTCATTCCCCCTATCTCTAGACCGTTTTCCATTTGGGCTTCCTTTTCTTCTTTTATCCTCAAAGAAACATGTTTCCTTCTAGTAGGTTTGGCTGCCACCACTAGGGTCCTGGCTACAACTGGCCCTCAGGTAACTCTCTCACCTCTGAGTTGGATAGTATCCTCTCTCGTCCCCATACACAAGTGTTTCTCTTCCCAGACACCTTCCTTACACAATTTCCCATTTCTTTCTCATCTCACCCTTGCTTTAATCAACATAGTTCTTTCCCCTGAGATTACTCTTCAGCCTTTCTTGTTGAAGCACTGCCCAGTGGTTCTCTTGGGATTTCCATTTCTCTCCCCTCAGCTCTCTTGGTACCAAATTCTGTAAGCTTCTCTGGTTTTTGGTTTCTCTTCCTTCTTTTCCTTCCAGGCAACATTTACTCAATCTAGGCTTGGATGATCAGGTACTTCTGCCAGCCTGCCCACTAGGGAACTCTGGGCTAGGAATATGTCTCAATGGCACCATTATATTTGGAAGGACGCTTCTGTATTTACACTGAACACACTAAAATACTAAACTTGAAGCCAAAATCCCCTCTCTGGCTCCA
- AR-V7 expression (AR-V7): significantly compromised
- binding to purified EZH2 (purified EZH2): considerable binding
- EZH2 binding at the AR promoter (AR promoter; LNCaP cells overexpressing NXTAR): significant binding
- deposition of H3K27me3 marks in the AR promoter (AR promoter; LNCaP, 22Rv1 and VCaP cells, NXTAR restoration): significant increase in deposition of H3K27me3 marks
- tumor growth (VCaP cells; NXTAR overexpressing vs vector-expressing VCaP cells): significant reduction in tumor growth
- AR protein levels in tumors (VCaP cells; immunoblotting of tumor lysates): significant reduction in AR protein levels
- tumor burden (VCaP cells; tumor weights and volume): significantly reduced
- AR mRNA level (AR; [1]): significant decrease in AR mRNA level
- KLK3 expression (AR; [1]): significant loss of expression
- TMPRSS2 expression (AR; [1]): significant loss of expression
- AR and KLK3/PSA levels post-DHT-treatment (AR; LNCaP and 22Rv1 cells, DHT 10 nM overnight, NXTAR restoration): significantly compromised upon NXTAR restoration
- AR levels (AR; VCaP cells, NXTAR overexpression (rescue experiment)): significant loss of AR levels
